Test results: the Human Domainome abundance scans (Beltran et al. 2025)
± gives the uncertainty stated by the source.

B1: Pituitary-specific positive transcription factor 1, residues 130 to 198; numbered along this chain, P28069 (parent)
chain: RELEKFANEFKVRRIKLGYTQTNVGEALAAVHGSEFSQTTICRFENLQLSFKNACKLKAILSKWLEEAE

Variants of: B1
Assay: abundance fitness (aPCA) (normalised: wild type 0, dead -1); higher = more abundant; growth selection in yeast, the domain comes from the species named
Conditions: Homo sapiens

In order of rising abundance fitness:
1. RECEKFANEFKVRRIKLGYTQTNVGEALAAVHGSEFSQTTICRFENLQLSFKNACKLKAILSKWLEEAE [L3C]  -0.953 ± 0.44
2. RELEKFANEFKVRRIKLGYTQTNVGEALAAVHGSEFWQTTICRFENLQLSFKNACKLKAILSKWLEEAE [S37W]  -0.925 ± 0.16
3. RELEKFANETKVRRIKLGYTQTNVGEALAAVHGSEFSQTTICRFENLQLSFKNACKLKAILSKWLEEAE [F10T]  -0.915 ± 0.28
4. RELEKFANEFKVTRIKLGYTQTNVGEALAAVHGSEFSQTTICRFENLQLSFKNACKLKAILSKWLEEAE [R13T]  -0.913 ± 0.3
5. RELEKRANEFKVRRIKLGYTQTNVGEALAAVHGSEFSQTTICRFENLQLSFKNACKLKAILSKWLEEAE [F6R]  -0.844 ± 0.086
6. RELEKFANEFKVRRIKLGYTQTNVGEAAAAVHGSEFSQTTICRFENLQLSFKNACKLKAILSKWLEEAE [L28A]  -0.799 ± 0.23
7. REDEKFANEFKVRRIKLGYTQTNVGEALAAVHGSEFSQTTICRFENLQLSFKNACKLKAILSKWLEEAE [L3D]  -0.794 ± 0.22
8. RELEKMANEFKVRRIKLGYTQTNVGEALAAVHGSEFSQTTICRFENLQLSFKNACKLKAILSKWLEEAE [F6M]  -0.753 ± 0.095
9. RELEKFANEFKVRRIKLGYTQTNVGEALAAVHGSEFSQTTICRFENLQLSFKNACKLKAILSKWKEEAE [L65K]  -0.75 ± 0.11
10. RILEKFANEFKVRRIKLGYTQTNVGEALAAVHGSEFSQTTICRFENLQLSFKNACKLKAILSKWLEEAE [E2I]  -0.676 ± 0.15
11. RELEKFANEFKVRRIKLGYTQTNVGEALAAVHGSEFSQTTICRFENLQLSFKNACKLKAILSWWLEEAE [K63W]  -0.589 ± 0.076
12. RELEKFANEFKVRRIKLGYTQTNVGEALAAVHGSEFSQTTICRFENLQLSFKNACKLSAILSKWLEEAE [K58S]  -0.58 ± 0.069
13. RELEKFANEFKVRRIKLGYTQTNVGEALAAVHGSEFEQTTICRFENLQLSFKNACKLKAILSKWLEEAE [S37E]  -0.568 ± 0.13
14. RELEKFANEFKVRRIKLGYTQTNVGEALAAVHGSEFSQTTICRHENLQLSFKNACKLKAILSKWLEEAE [F44H]  -0.565 ± 0.24
15. RELEKFANEFKVRRIKLGYTQTNVGEALAAVHGSEFSQTTICRFENLMLSFKNACKLKAILSKWLEEAE [Q48M]  -0.505 ± 0.27
16. RELEKFANEFKVRRIKLGGTQTNVGEALAAVHGSEFSQTTICRFENLQLSFKNACKLKAILSKWLEEAE [Y19G]  -0.501 ± 0.4
17. RELEKFANEFKVRRIKLGYTQTNVGEALAAVHGSEFSQTTICRFENLQLSFKNACKLKAILSKWLEFAE [E67F]  -0.49 ± 0.14
18. RELEKFANEFKVRRIKLGYTQTNVGEALAAVHGSEFSQTTICRFENLQLSFKNACKLAAILSKWLEEAE [K58A]  -0.473 ± 0.07
19. RELEKFANEFKVRRIKLGATQTNVGEALAAVHGSEFSQTTICRFENLQLSFKNACKLKAILSKWLEEAE [Y19A]  -0.421 ± 0.19
20. RGLEKFANEFKVRRIKLGYTQTNVGEALAAVHGSEFSQTTICRFENLQLSFKNACKLKAILSKWLEEAE [E2G]  -0.373 ± 0.072
21. RELEKFANEFKVRRIKLGYTQTNVGEALAAVHGSEFSQTTICRFENLQLSFKNACKLKAILSKWLETAE [E67T]  -0.371 ± 0.097
22. RELEKFANEFKVRRIKLGYTQTNVGEALAGVHGSEFSQTTICRFENLQLSFKNACKLKAILSKWLEEAE [A30G]  -0.298 ± 0.054
23. RELEKFANEFKVRRIKLGYTQTNVGEALAAVHGSEFCQTTICRFENLQLSFKNACKLKAILSKWLEEAE [S37C]  -0.281 ± 0.071
24. RELEKFANEFKVRRIKLGYTQTNVGEALAAVHGSKFSQTTICRFENLQLSFKNACKLKAILSKWLEEAE [E35K]  -0.23 ± 0.15
25. RELEKFANEFKVRRIKLGYTQTNVGEALATVHGSEFSQTTICRFENLQLSFKNACKLKAILSKWLEEAE [A30T]  -0.23 ± 0.085
26. RELETFANEFKVRRIKLGYTQTNVGEALAAVHGSEFSQTTICRFENLQLSFKNACKLKAILSKWLEEAE [K5T]  -0.21 ± 0.066
27. REIEKFANEFKVRRIKLGYTQTNVGEALAAVHGSEFSQTTICRFENLQLSFKNACKLKAILSKWLEEAE [L3I]  -0.194 ± 0.22
28. RELEKFANEFKVRRIKLGYTQTNVGEALAAVHGSEFSQTTICRFENLQLSFKNACKLRAILSKWLEEAE [K58R]  -0.184 ± 0.067
29. RELEKFANEFKVRRIKLGYTQTNVGEALAAVHGSEFSQTTICRFENLQLSFKNACKLKAILSRWLEEAE [K63R]  -0.152 ± 0.055
30. RELEKFANEFKVRRIKLGYTQTNVGEALAAVHGSEFSQTTICRFENLQLSFKNACKLKAILSKWLESAE [E67S]  -0.088 ± 0.056
31. RELEKFANEFKVRRIKLGYTQTNVGEALAAVHGSEFSQTTICRFENKQLSFKNACKLKAILSKWLEEAE [L47K]  -0.064 ± 0.057
32. RELEKFANEFKVRRIKLGYTQTNVGEALAAVHGSEFSQTTICRFENLQLSFKNACKLKAILAKWLEEAE [S62A]  -0.015 ± 0.072
33. RELEKFANEFKVRRIKLGYTQTNVGEALAKVHGSEFSQTTICRFENLQLSFKNACKLKAILSKWLEEAE [A30K]  -0.008 ± 0.1
34. RELEKFANEFKVRRIKLGYTQHNVGEALAAVHGSEFSQTTICRFENLQLSFKNACKLKAILSKWLEEAE [T22H]  0.041 ± 0.075
35. RELEKFANEFKVRRIKLGYTQTNVGEALAAVHGSEFSQTTICRFENLQLSFKMACKLKAILSKWLEEAE [N53M]  0.058 ± 0.11
36. RELEKFANEFKVRRIKLGYTQTNVVEALAAVHGSEFSQTTICRFENLQLSFKNACKLKAILSKWLEEAE [G25V]  0.085 ± 0.045
37. RELEKFANEFKVRRIKLGYTQTNVGEALAAVHGSEFSQTTICRFENLQLSFKVACKLKAILSKWLEEAE [N53V]  0.122 ± 0.069
38. RELEKFANEFKVRRIKLGYTQTNVGEALAAVHGSEFSQETICRFENLQLSFKNACKLKAILSKWLEEAE [T39E]  0.255 ± 0.077
39. RELEKFANEFKVRRIKLGYTQTNVGEALAAVHGSEFSQTTIDRFENLQLSFKNACKLKAILSKWLEEAE [C42D]  0.325 ± 0.085
